The supplement of paper PMC10567573

B1: ZBTB22 (parent)
chain: AVLAASSPYFHDQVLLKGMTSISL
B2: MED27 (parent)
chain: YNENVYTEDGKLDIWSKSNYQVFQ

Variants of: B1
Test: protein stability index of a GFP-peptide fusion (GPS, HEK-293T) (PSI 1-6); higher = more stable
Settings: c terminus: a fixed tail appended
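Further: lentivirally expressed fusions sorted by FACS into six bins by GFP to DsRed ratio, PSI derived from sequencing read proportions per bin multiplied by bin number.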

Variant	protein stability index
AVLAASSPYFDDQVLLKGMTSISL	3.15
AVLAASSPYFIDQVLLKGMTSISL	1.58
AVLAASSPYFLDQVLLKGMTSISL	1.89
AVLAASSPYFMDQVLLKGMTSISL	4.12
AVLAASSPYFPDQVLLKGMTSISL	2.11
AVLAASSPYFSDQVLLKGMTSISL	2.71
AVLAASSPYFTDQVLLKGMTSISL	3.44
AVLAASSPYFHAQVLLKGMTSISL	2.68
AVLAASSPYFHKQVLLKGMTSISL	1.39
AVLAASSPYFHLQVLLKGMTSISL	2.57
AVLAASSPYFHNQVLLKGMTSISL	1.98
AVLAASSPYFHPQVLLKGMTSISL	3.38
AVLAASSPYFHQQVLLKGMTSISL	3.51
AVLAASSPYFHRQVLLKGMTSISL	3.23
AVLAASSPYFHTQVLLKGMTSISL	2.95
AVLAASSPYFHWQVLLKGMTSISL	2.12
AVLAASSPYFHYQVLLKGMTSISL	3.7
AVLAASSPYFHDAVLLKGMTSISL	3.38
AVLAASSPYFHDDVLLKGMTSISL	3.61
AVLAASSPYFHDFVLLKGMTSISL	3
AVLAASSPYFHDGVLLKGMTSISL	2.15
AVLAASSPYFHDHVLLKGMTSISL	2.48
AVLAASSPYFHDIVLLKGMTSISL	4.9

Variant	protein stability index
AVLAASSPYFHDKVLLKGMTSISL	1.92
AVLAASSPYFHDLVLLKGMTSISL	1.43
AVLAASSPYFHDMVLLKGMTSISL	2.94
AVLAASSPYFHDPVLLKGMTSISL	1.64
AVLAASSPYFHDTVLLKGMTSISL	3.86
AVLAASSPYFHDVVLLKGMTSISL	2.02
AVLAASSPYFHDQALLKGMTSISL	2.47
AVLAASSPYFHDQCLLKGMTSISL	3.27
AVLAASSPYFHDQDLLKGMTSISL	1.71
AVLAASSPYFHDQELLKGMTSISL	2.47
AVLAASSPYFHDQFLLKGMTSISL	1.8
AVLAASSPYFHDQHLLKGMTSISL	2.37
AVLAASSPYFHDQKLLKGMTSISL	1.04
AVLAASSPYFHDQMLLKGMTSISL	2.72
AVLAASSPYFHDQNLLKGMTSISL	2.07
AVLAASSPYFHDQPLLKGMTSISL	1.63
AVLAASSPYFHDQQLLKGMTSISL	1.73
AVLAASSPYFHDQRLLKGMTSISL	3.36
AVLAASSPYFHDQSLLKGMTSISL	3.06
AVLAASSPYFHDQTLLKGMTSISL	2.96
AVLAASSPYFHDQYLLKGMTSISL	2.25
AVLAASSPYFHDQVALKGMTSISL	1.66
AVLAASSPYFHDQVCLKGMTSISL	1.87

Variant	protein stability index
AVLAASSPYFHDQVDLKGMTSISL	2.77
AVLAASSPYFHDQVELKGMTSISL	1.38
AVLAASSPYFHDQVFLKGMTSISL	3.52
AVLAASSPYFHDQVGLKGMTSISL	3.34
AVLAASSPYFHDQVHLKGMTSISL	1.4
AVLAASSPYFHDQVILKGMTSISL	3.58
AVLAASSPYFHDQVKLKGMTSISL	2.3
AVLAASSPYFHDQVMLKGMTSISL	1.94
AVLAASSPYFHDQVNLKGMTSISL	2.76
AVLAASSPYFHDQVPLKGMTSISL	1.3
AVLAASSPYFHDQVQLKGMTSISL	1.76
AVLAASSPYFHDQVLCKGMTSISL	3.99
AVLAASSPYFHDQVLDKGMTSISL	1.93
AVLAASSPYFHDQVLFKGMTSISL	2.47
AVLAASSPYFHDQVLGKGMTSISL	2.28
AVLAASSPYFHDQVLKKGMTSISL	3
AVLAASSPYFHDQVLMKGMTSISL	3.83
AVLAASSPYFHDQVLNKGMTSISL	2.37
AVLAASSPYFHDQVLPKGMTSISL	2.27
AVLAASSPYFHDQVLQKGMTSISL	2.32
AVLAASSPYFHDQVLSKGMTSISL	2.26
AVLAASSPYFHDQVLWKGMTSISL	2.44
AVLAASSPYFHDQVLYKGMTSISL	3.11

Variant	protein stability index
AVLAASSPYFHDQVLLAGMTSISL	1.94
AVLAASSPYFHDQVLLIGMTSISL	3.47
AVLAASSPYFHDQVLLNGMTSISL	1.43
AVLAASSPYFHDQVLLPGMTSISL	2.05
AVLAASSPYFHDQVLLYGMTSISL	2.88
AVLAASSPYFHDQVLLKAMTSISL	3.06
AVLAASSPYFHDQVLLKDMTSISL	3.05
AVLAASSPYFHDQVLLKEMTSISL	1.46
AVLAASSPYFHDQVLLKFMTSISL	3.77
AVLAASSPYFHDQVLLKHMTSISL	1.84
AVLAASSPYFHDQVLLKIMTSISL	2.8
AVLAASSPYFHDQVLLKKMTSISL	2.14
AVLAASSPYFHDQVLLKNMTSISL	2.37
AVLAASSPYFHDQVLLKSMTSISL	3.59
AVLAASSPYFHDQVLLKVMTSISL	2.66
AVLAASSPYFHDQVLLKWMTSISL	2.61
AVLAASSPYFHDQVLLKYMTSISL	3.35
AVLAASSPYFHDQVLLKGATSISL	2.09
AVLAASSPYFHDQVLLKGCTSISL	3.68
AVLAASSPYFHDQVLLKGETSISL	1.69
AVLAASSPYFHDQVLLKGGTSISL	1.04
AVLAASSPYFHDQVLLKGKTSISL	1.37
AVLAASSPYFHDQVLLKGLTSISL	2.23

Variant	protein stability index
AVLAASSPYFHDQVLLKGPTSISL	3.42
AVLAASSPYFHDQVLLKGQTSISL	1.46
AVLAASSPYFHDQVLLKGRTSISL	2.92
AVLAASSPYFHDQVLLKGSTSISL	2.68
AVLAASSPYFHDQVLLKGTTSISL	2.57
AVLAASSPYFHDQVLLKGWTSISL	1.8
AVLAASSPYFHDQVLLKGMESISL	2.54
AVLAASSPYFHDQVLLKGMHSISL	1.6
AVLAASSPYFHDQVLLKGMISISL	2.3
AVLAASSPYFHDQVLLKGMKSISL	2.32
AVLAASSPYFHDQVLLKGMLSISL	3.1
AVLAASSPYFHDQVLLKGMMSISL	3.42
AVLAASSPYFHDQVLLKGMNSISL	2.51
AVLAASSPYFHDQVLLKGMQSISL	2.14
AVLAASSPYFHDQVLLKGMVSISL	4.26
AVLAASSPYFHDQVLLKGMTAISL	2.04
AVLAASSPYFHDQVLLKGMTCISL	3.52
AVLAASSPYFHDQVLLKGMTDISL	2.17
AVLAASSPYFHDQVLLKGMTEISL	1.95
AVLAASSPYFHDQVLLKGMTFISL	2.52
AVLAASSPYFHDQVLLKGMTGISL	2.85
AVLAASSPYFHDQVLLKGMTKISL	2.35
AVLAASSPYFHDQVLLKGMTLISL	3.04

Variant	protein stability index
AVLAASSPYFHDQVLLKGMTNISL	2.11
AVLAASSPYFHDQVLLKGMTQISL	2.67
AVLAASSPYFHDQVLLKGMTYISL	3.85
AVLAASSPYFHDQVLLKGMTSASL	3.31
AVLAASSPYFHDQVLLKGMTSCSL	1.83
AVLAASSPYFHDQVLLKGMTSDSL	1.66
AVLAASSPYFHDQVLLKGMTSESL	4.43
AVLAASSPYFHDQVLLKGMTSGSL	2.4
AVLAASSPYFHDQVLLKGMTSHSL	2.43
AVLAASSPYFHDQVLLKGMTSKSL	2.13
AVLAASSPYFHDQVLLKGMTSNSL	1.44
AVLAASSPYFHDQVLLKGMTSPSL	1.72
AVLAASSPYFHDQVLLKGMTSQSL	1.09
AVLAASSPYFHDQVLLKGMTSSSL	1.29
AVLAASSPYFHDQVLLKGMTSTSL	2.75
AVLAASSPYFHDQVLLKGMTSYSL	3.76
AVLAASSPYFHDQVLLKGMTSICL	1.95
AVLAASSPYFHDQVLLKGMTSIDL	1.3
AVLAASSPYFHDQVLLKGMTSIEL	2.57
AVLAASSPYFHDQVLLKGMTSIFL	4.12
AVLAASSPYFHDQVLLKGMTSIGL	3.35
AVLAASSPYFHDQVLLKGMTSIHL	2.46
AVLAASSPYFHDQVLLKGMTSIIL	2.51

Variant	protein stability index
AVLAASSPYFHDQVLLKGMTSIKL	2.8
AVLAASSPYFHDQVLLKGMTSILL	2.64
AVLAASSPYFHDQVLLKGMTSIML	1.86
AVLAASSPYFHDQVLLKGMTSIPL	3.55
AVLAASSPYFHDQVLLKGMTSITL	1.22
AVLAASSPYFHDQVLLKGMTSIWL	2.97
AVLAASSPYFHDQVLLKGMTSISA	1.58
AVLAASSPYFHDQVLLKGMTSISD	1.76
AVLAASSPYFHDQVLLKGMTSISE	1.52
AVLAASSPYFHDQVLLKGMTSISF	3.47
AVLAASSPYFHDQVLLKGMTSISH	1.95
AVLAASSPYFHDQVLLKGMTSISI	3.01
AVLAASSPYFHDQVLLKGMTSISK	1.95
AVLAASSPYFHDQVLLKGMTSISN	1.83
AVLAASSPYFHDQVLLKGMTSISP	1.62
AVLAASSPYFHDQVLLKGMTSISQ	1.7
AVLAASSPYFHDQVLLKGMTSISR	1.84
AVLAASSPYFHDQVLLKGMTSISS	1.15
AVLAASSPYFHDQVLLKGMTSIST	1.27
AVLAASSPYFHDQVLLKGMTSISV	1.53
AVLAASSPYFHDQVLLKGMTSISY	3.14

Variants of: B2
Test: as above
Settings: c terminus: a fixed tail appended

Variant	protein stability index
ANENVYTEDGKLDIWSKSNYQVFQ	2.86
CNENVYTEDGKLDIWSKSNYQVFQ	2.9
DNENVYTEDGKLDIWSKSNYQVFQ	3.38
ENENVYTEDGKLDIWSKSNYQVFQ	4.04
FNENVYTEDGKLDIWSKSNYQVFQ	2.27
GNENVYTEDGKLDIWSKSNYQVFQ	3.7
HNENVYTEDGKLDIWSKSNYQVFQ	3.23
INENVYTEDGKLDIWSKSNYQVFQ	2.5
KNENVYTEDGKLDIWSKSNYQVFQ	3.28
LNENVYTEDGKLDIWSKSNYQVFQ	3.2
MNENVYTEDGKLDIWSKSNYQVFQ	3.52
NNENVYTEDGKLDIWSKSNYQVFQ	3.35
PNENVYTEDGKLDIWSKSNYQVFQ	3.52
QNENVYTEDGKLDIWSKSNYQVFQ	3.74
RNENVYTEDGKLDIWSKSNYQVFQ	3.11
SNENVYTEDGKLDIWSKSNYQVFQ	3.23
TNENVYTEDGKLDIWSKSNYQVFQ	3.4
VNENVYTEDGKLDIWSKSNYQVFQ	3.67
WNENVYTEDGKLDIWSKSNYQVFQ	2.93
YAENVYTEDGKLDIWSKSNYQVFQ	2.53
YCENVYTEDGKLDIWSKSNYQVFQ	2.47
YDENVYTEDGKLDIWSKSNYQVFQ	3.6
YEENVYTEDGKLDIWSKSNYQVFQ	3.95
YFENVYTEDGKLDIWSKSNYQVFQ	2.26
YGENVYTEDGKLDIWSKSNYQVFQ	1.75
YHENVYTEDGKLDIWSKSNYQVFQ	1.75
YIENVYTEDGKLDIWSKSNYQVFQ	1.68
YKENVYTEDGKLDIWSKSNYQVFQ	2.91
YLENVYTEDGKLDIWSKSNYQVFQ	1.68
